Experiment [1] has as its target OB protein. As to the kind of experiment: BIACORE; OB protein immobilized, conditioned medium of 293 cells expressing the receptor.
In experiment [2] the target is OB protein. As to the kind of experiment: BIACORE; OB protein immobilized, conditioned medium of CHO cells expressing the receptor. (In general: In SPR one partner is held on a chip, and binding of the other changes the refractive index at the surface.)

Take “recombinant soluble human OB receptor (leader + extracellular domain, Seq. ID No. 10)”: the BIACORE read-out is 191 in the experiment with OB protein [1] and 151 in the experiment with OB protein [2].

In the case of “recombinant soluble human OB receptor with a C-terminal FLAG-tag (Seq. ID No. 12)”, the BIACORE read-out with OB protein [1] came to 172.

These data come from patent EP0877803B1.
